Test results as given in patent US20220289837A1 (VIB VZW, published 2022).

Legend:
[1] = biological target: T1, Stabilized human CFTR (stab-CFTR: 2PT/ΔRI/R1048A_1172X) (human, UniProt P13569 1-1171, limits assumed); test: cell-based or functional assay
[2] = biological target: T1, Stabilized human CFTR (stab-CFTR: …); test: cell-based or functional assay; remark: listed apart in the source
[3] = biological target: T2, F508del-2PT-NBD1 (human, UniProt P13569 388-646, biotinylated for the ELISA (sites not given)); test: ELISA, biotinylated F508del-2PT-NBD1 on avidin-coated plate, nanobody titrated, anti-His detection
T2 construct: also called F508del-2PT-NBD1 mutant
Description: (§1) (a) Nanobody binding to 2PT-NBD1 measured by ELISA. Biotinylated 2PT-NBD1 was immobilized on avidin-coated plates and incubated with increasing concentration of each nanobody. Binding of nanobody was followed by immunodetection of the His-tag (see Methods). Representative curve of 3 independent experiments is shown. Error bars represent the standard deviation (SD) of duplicates. Data were normalized to maximum signal for each nanobody separately. (b) Nanobody binding to F508del-2PT-NBD1 measured by ELISA as described in panel a. (c) Nanobody T4 binding to 2PT-NBD1 and F508del-2PT-NBD1. Data were normalized to maximum signal of T4 binding to 2PT-NBD1. (d) Nanobody T8 binding to 2PT-NBD1 and F508del-2PT-NBD1. Data were normalized to maximum signal of T8 binding to 2PT-NBD1.
(§2) For dose-response assays, Nunc MaxiSorp 96-well plates (ThermoScientific), were coated with 5 μg/ml NeutrAvidin Biotin-Binding protein (ThermoScientific) overnight at 4° C. and blocked 2 h at room temperature (RT) with 2% milk in phosphate-buffered saline (PBS). Each new reagent addition was preceded by three washes with 200 μl of NBD1 buffer (20 mM HEPES pH 7.5, 150 mM NaCl, and 10% (w/v) glycerol, 10% (w/v) ethylene glycol, 2 mM ATP, 3 mM MgCl₂). Then, biotinylated purified NBD1 proteins at 5 μg/ml were immobilized 30 min at RT followed by 1 h RT incubation with 100 μl various concentrations (0-20 μg/ml) of purified nanobodies. Signal detection was followed using His-tag specific antibody (Invitrogen, catalogue number: MA1-135, 1:3000 dilution) to detect the nanobodies and secondary antibody anti-mouse coupled to horse radish peroxidase (HRP) (Millipore, catalogue number: AP308P, 1:5000 dilution). 50 μl of 1-Step UltraTMB-ELISA (ThermoScientific) was used as a substrate for the peroxidase and intensity of the reaction was proportional to absorbance measured at 450 nm with SynergyMx (BioTek) after addition of 50 μl H₂SO₄ at 1M.

[4] = biological target: T3, 2PT-NBD1-RE (2PT-NBD1 with residues 387-678, containing the regulatory extension) (human, UniProt P13569 387-678, biotinylated for the ELISA (sites not given)); test: ELISA, biotinylated 2PT-NBD1-RE on avidin-coated plate, T27 titrated
Excerpt: (§3) The location of these nanobodies completely overlaps (FIG. 11a) with that of the C-terminal regulatory extension (RE) observed in previously published structures of NBD1^{[25,26].} The RE segment, comprising residues 654-673 was removed from the 2PT-NBD1 construct used for immunization and characterization. While the functional role of the RE is still unclear, it has been described to be a very mobile domain^{[27]}. […] This is consistent with RE being a dynamic region of CFTR.
as §2, with “Signal detection was followed using His-tag specific antibody (Invitrogen, catalogue number: MA1-135, 1:3000 dilution) to detect the nanobodies and secondary antibody anti-mouse coupled to horse radish peroxidase (HRP) (Millipore, catalogue number: AP308P, 1:5000 dilution).” left out

[5] = biological target: T4, 2PT-NBD1 (human CFTR nucleotide-binding domain 1, residues 387-646, with S492P, A534P, I539T) (human, UniProt P13569 388-646, biotinylated for the ELISA (sites not given)); test: ELISA, biotinylated 2PT-NBD1 on avidin-coated plate, T27 titrated
T4 construct: N-terminal His6-SUMO tag removed with Ulp1; In the T2a-T4 and T27 crystals the domain was cut by papain or subtilisin
Excerpt: as §3
as §2, with “Signal detection was followed using His-tag specific antibody (Invitrogen, catalogue number: MA1-135, 1:3000 dilution) to detect the nanobodies and secondary antibody anti-mouse coupled to horse radish peroxidase (HRP) (Millipore, catalogue number: AP308P, 1:5000 dilution).” left out

[6] = biological target: T4, 2PT-NBD1 (human CFTR nucleotide-binding …); test: isothermal titration calorimetry, nanobody titrated into 2PT-NBD1 at 20 °C, one-site model
Description: (§4) Isothermal titration calorimetry (ITC) was used to characterize the thermodynamic parameters of the binding (FIG. 1e and FIG. 9). […] These KD values are similar to those measured for other in vivo matured camelid heavy-chain antibodies interacting with their ligands^{[20]}. The thermodynamic parameters of the interaction of nanobodies with 2PT-NBD1 were determined based on these ITC measurements (FIG. 1e and FIG. 9).
(§5) Interactions between nanobodies and 2PT-NBD1 was carried out on NanoITC system (TA Instruments) in 0.165 ml cells at 20° C., 300 rpm syringe stirring. Proteins were extensively dialyzed in 20 mM Hepes buffer pH 7.5, 150 mM NaCl, 10% (w/v) glycerol, 10% (w/v) ethylene glycol, 2 mM ATP and 3 mM MgCl₂ for 16 h at 4° C. Heat of dilution from control experiments of each nanobody titrated into buffer was subtracted from the titration into 2PT-NBD1. Data were integrated analyzed with Origin 7.0 software (Origin Lab Corp.).

[7] = biological target: T4, 2PT-NBD1 (human CFTR nucleotide-binding …); test: ELISA, biotinylated 2PT-NBD1 on avidin-coated plate, nanobody titrated, anti-His detection; column head 'pEC50 (M)'
Description: as §1, §2

[8] = biological target: T4, 2PT-NBD1 (human CFTR nucleotide-binding …); test: ITC, nanobody titrated into 2PT-NBD1 at 20 °C, one-site model
Description: as §4, §5

[9] = biological target: T4, 2PT-NBD1 (human CFTR nucleotide-binding …); test: cell-based or functional assay
[10] = biological target: Purified human wt-CFTR (His10-SUMO*-CFTRFLAG-EGFP), PKA phosphorylated (human, UniProt P13569 1-1480, PKA phosphorylated (sites not given)); test: cell-based or functional assay
[11] = biological target: T3, 2PT-NBD1-RE (2PT-NBD1 with residues …); test: ELISA, biotinylated 2PT-NBD1-RE on avidin-coated plate, D12 titrated
Excerpt: as §3
as §2, with “Signal detection was followed using His-tag specific antibody (Invitrogen, catalogue number: MA1-135, 1:3000 dilution) to detect the nanobodies and secondary antibody anti-mouse coupled to horse radish peroxidase (HRP) (Millipore, catalogue number: AP308P, 1:5000 dilution).” left out

[12] = biological target: T4, 2PT-NBD1 (human CFTR nucleotide-binding …); test: ELISA, biotinylated 2PT-NBD1 on avidin-coated plate, D12 titrated
Excerpt: as §3
as §2, with “Signal detection was followed using His-tag specific antibody (Invitrogen, catalogue number: MA1-135, 1:3000 dilution) to detect the nanobodies and secondary antibody anti-mouse coupled to horse radish peroxidase (HRP) (Millipore, catalogue number: AP308P, 1:5000 dilution).” left out

[13] = biological target: T5, 2PT-F508del-CFTR expressed in BHK-21 cells (human, UniProt P13569 1-1480, I539T; S492P; A534P; F508del); test: flow cytometry on permeabilised BHK-21 cells expressing 2PT-F508del-CFTR, anti-tag antibody and Alexa Fluor 488 secondary
T5 construct: Full-length F508del CFTR stabilized by the three point mutations; permeabilized cells in flow cytometry
Excerpt: Graph depicts one representative of at least three independent experiments. (FIG. 4F) Average median fluorescence (fold over negative control) for each of the three representative nanobodies as illustrated in (FIG. 4D) and (FIG. 4E). Quantification of at least 3 independent experiments (±SEM). (g) Immunoblot of CFTR from solubilized BHK-21 cells pulled-down with His-tagged nanobodies, including a non-CFTR nanobody as a control. Eluted nanobodies-CFTR complexes were separated by SDS-PAGE and presence of CFTR was detected with mAb 596 antibody after immunoblotting. Arrows indicate the mature (band C) and immature (band B) forms of CFTR. Representative of at least 3 independent experiments. (FIG. 4H) Flow cytometry analysis of nanobodies T2a, T8 and G3a on BHK-21 cells expressing 2PT-F508del showing increased labelling for T2a and G3a, but not T8. (FIG. 4I) Quantification of data illustrated in […]. Average of 3 independent experiments (±SEM).
Parental BHK-21 cells (ATCC; CCL-10) and cells stably overexpressing human wt-CFTR^{[43,44,47]} or 2PT-F508del-CFTR, as described above, were permeabilized with 0.01% n-Dodecyl-β-D-Maltopyranoside β-DDM—Inalco) at least for 2 h on ice. In the meantime, cells were incubated with 50 μg/ml nanobodies and DRAQ7 (0.3 μM—Biostatus) to monitor the permeabilization state. Nanobody binding was detected by using His-tag specific antibody (Invitrogen, catalogue number MA1-135, 1 μg/ml) or Myc-tag specific antibody (Invitrogen, catalogue number 13-2500, 2 μg/ml) and then anti-mouse-Alexa Fluor 488 (Invitrogen, catalogue number A11001, 1.3 μg/ml) at least for 30 min on ice. Cells were washed one time between each step by centrifugation (200×g for 5 min at 4° C.). All incubations (100 μl) and washes (1.5 ml) were performed in PBS with 6% fetal bovine serum (FBS) and 0.01%13-DDM on ice. Cells fluorescence was measured with Gallios Flow Cytometer (Beckman Coulter). Data were analyzed with Kaluza software.

T2 sequence (P13569 other isoform, or with tags, fused parts or gaps limits assumed, stated change not applied): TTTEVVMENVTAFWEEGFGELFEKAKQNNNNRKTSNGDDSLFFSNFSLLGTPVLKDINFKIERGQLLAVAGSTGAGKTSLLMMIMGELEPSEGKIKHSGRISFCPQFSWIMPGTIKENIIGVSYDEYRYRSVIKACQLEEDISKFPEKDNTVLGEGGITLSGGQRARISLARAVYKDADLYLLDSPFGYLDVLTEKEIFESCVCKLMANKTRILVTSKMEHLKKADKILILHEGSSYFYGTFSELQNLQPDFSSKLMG
T4 sequence (P13569 388-646 V470M/S492P/A534P/I539T limits assumed): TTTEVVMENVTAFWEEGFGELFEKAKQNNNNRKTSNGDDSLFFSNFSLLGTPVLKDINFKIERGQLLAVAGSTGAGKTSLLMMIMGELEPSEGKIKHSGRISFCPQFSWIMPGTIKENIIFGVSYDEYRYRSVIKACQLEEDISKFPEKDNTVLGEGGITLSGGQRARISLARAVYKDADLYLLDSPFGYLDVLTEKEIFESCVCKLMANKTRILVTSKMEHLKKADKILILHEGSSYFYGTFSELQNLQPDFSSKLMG
T1 sequence (P13569 other isoform, or with tags, fused parts or gaps R1048A R1048A limits assumed): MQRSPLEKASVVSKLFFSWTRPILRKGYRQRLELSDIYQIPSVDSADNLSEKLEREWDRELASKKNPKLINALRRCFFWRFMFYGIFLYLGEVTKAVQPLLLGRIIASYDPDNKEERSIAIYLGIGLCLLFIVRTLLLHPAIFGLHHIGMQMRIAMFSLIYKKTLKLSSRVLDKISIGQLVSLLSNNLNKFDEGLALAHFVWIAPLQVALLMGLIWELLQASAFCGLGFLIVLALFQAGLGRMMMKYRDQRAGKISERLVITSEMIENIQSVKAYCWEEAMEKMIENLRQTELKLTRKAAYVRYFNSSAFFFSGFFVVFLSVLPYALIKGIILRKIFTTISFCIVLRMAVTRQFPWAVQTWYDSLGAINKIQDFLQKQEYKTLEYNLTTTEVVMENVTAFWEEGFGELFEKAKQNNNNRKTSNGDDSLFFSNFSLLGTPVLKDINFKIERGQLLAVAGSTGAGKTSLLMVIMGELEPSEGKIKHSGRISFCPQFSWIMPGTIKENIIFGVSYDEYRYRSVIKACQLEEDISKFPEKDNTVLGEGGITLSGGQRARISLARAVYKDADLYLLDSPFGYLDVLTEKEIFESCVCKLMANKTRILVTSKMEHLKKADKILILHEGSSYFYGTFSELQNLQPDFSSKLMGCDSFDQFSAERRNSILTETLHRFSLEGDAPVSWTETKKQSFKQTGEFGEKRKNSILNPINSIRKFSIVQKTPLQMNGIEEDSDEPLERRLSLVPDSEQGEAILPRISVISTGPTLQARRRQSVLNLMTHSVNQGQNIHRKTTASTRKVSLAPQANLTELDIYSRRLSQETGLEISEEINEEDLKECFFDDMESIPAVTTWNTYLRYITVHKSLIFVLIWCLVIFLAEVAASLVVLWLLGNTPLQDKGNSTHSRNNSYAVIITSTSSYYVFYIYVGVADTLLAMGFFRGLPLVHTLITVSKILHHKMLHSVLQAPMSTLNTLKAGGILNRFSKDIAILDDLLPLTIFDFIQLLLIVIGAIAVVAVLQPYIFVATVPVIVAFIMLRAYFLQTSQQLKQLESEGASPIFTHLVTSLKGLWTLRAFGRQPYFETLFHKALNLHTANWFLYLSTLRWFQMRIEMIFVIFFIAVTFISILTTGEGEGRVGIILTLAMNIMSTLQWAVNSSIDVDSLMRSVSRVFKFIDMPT
T3 sequence (P13569 other isoform, or with tags, fused parts or gaps limits assumed): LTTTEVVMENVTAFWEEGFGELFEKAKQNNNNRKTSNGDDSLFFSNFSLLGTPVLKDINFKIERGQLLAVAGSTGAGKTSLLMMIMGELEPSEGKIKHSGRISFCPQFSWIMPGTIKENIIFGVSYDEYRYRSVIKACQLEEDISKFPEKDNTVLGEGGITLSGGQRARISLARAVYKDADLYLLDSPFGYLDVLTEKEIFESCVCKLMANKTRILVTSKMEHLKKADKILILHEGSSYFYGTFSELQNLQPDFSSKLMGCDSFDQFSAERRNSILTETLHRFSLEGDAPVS
Purified human wt-CFTR (His10-SUMO*-CFTRFLAG-EGFP), PKA phosphorylated, sequence (P13569 whole entry): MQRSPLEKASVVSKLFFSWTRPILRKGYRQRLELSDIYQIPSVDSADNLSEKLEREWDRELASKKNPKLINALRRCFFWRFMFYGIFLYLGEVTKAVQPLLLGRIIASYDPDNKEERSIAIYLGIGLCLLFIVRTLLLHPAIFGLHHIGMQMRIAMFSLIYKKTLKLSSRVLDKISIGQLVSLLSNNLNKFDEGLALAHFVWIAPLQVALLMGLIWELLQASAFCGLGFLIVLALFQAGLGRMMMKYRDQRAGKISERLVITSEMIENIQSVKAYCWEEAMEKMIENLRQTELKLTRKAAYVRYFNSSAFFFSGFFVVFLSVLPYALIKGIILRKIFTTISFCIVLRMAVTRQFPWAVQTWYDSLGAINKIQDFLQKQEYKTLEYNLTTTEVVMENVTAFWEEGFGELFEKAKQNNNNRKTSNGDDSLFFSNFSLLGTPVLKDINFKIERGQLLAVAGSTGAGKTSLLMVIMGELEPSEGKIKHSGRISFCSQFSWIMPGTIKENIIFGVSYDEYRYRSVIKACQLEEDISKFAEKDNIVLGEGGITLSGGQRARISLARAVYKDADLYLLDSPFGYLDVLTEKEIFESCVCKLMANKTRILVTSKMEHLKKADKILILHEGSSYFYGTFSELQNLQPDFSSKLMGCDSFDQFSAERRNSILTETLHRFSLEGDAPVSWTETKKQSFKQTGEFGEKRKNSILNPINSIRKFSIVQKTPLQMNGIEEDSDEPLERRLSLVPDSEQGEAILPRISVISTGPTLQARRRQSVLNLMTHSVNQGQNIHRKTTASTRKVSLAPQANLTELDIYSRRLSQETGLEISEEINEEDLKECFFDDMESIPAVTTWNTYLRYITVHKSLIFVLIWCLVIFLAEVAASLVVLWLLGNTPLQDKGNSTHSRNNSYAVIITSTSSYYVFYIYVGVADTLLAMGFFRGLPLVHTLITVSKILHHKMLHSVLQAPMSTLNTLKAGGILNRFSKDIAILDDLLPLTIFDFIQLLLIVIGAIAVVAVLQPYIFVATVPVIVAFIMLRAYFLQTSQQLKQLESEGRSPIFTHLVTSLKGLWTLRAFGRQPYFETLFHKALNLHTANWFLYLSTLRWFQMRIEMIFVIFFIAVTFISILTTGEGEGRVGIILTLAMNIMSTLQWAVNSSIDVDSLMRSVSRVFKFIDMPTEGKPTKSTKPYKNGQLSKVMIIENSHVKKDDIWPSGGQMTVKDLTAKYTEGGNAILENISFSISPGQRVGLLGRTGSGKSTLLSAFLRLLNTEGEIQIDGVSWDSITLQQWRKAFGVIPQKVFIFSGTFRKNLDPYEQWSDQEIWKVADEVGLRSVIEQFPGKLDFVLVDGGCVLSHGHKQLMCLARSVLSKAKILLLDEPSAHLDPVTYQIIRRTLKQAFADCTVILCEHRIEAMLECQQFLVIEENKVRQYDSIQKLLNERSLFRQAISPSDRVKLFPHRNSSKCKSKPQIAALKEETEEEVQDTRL
T5 sequence (P13569 other isoform, or with tags, fused parts or gaps I539T/S492P/A534P/F508del): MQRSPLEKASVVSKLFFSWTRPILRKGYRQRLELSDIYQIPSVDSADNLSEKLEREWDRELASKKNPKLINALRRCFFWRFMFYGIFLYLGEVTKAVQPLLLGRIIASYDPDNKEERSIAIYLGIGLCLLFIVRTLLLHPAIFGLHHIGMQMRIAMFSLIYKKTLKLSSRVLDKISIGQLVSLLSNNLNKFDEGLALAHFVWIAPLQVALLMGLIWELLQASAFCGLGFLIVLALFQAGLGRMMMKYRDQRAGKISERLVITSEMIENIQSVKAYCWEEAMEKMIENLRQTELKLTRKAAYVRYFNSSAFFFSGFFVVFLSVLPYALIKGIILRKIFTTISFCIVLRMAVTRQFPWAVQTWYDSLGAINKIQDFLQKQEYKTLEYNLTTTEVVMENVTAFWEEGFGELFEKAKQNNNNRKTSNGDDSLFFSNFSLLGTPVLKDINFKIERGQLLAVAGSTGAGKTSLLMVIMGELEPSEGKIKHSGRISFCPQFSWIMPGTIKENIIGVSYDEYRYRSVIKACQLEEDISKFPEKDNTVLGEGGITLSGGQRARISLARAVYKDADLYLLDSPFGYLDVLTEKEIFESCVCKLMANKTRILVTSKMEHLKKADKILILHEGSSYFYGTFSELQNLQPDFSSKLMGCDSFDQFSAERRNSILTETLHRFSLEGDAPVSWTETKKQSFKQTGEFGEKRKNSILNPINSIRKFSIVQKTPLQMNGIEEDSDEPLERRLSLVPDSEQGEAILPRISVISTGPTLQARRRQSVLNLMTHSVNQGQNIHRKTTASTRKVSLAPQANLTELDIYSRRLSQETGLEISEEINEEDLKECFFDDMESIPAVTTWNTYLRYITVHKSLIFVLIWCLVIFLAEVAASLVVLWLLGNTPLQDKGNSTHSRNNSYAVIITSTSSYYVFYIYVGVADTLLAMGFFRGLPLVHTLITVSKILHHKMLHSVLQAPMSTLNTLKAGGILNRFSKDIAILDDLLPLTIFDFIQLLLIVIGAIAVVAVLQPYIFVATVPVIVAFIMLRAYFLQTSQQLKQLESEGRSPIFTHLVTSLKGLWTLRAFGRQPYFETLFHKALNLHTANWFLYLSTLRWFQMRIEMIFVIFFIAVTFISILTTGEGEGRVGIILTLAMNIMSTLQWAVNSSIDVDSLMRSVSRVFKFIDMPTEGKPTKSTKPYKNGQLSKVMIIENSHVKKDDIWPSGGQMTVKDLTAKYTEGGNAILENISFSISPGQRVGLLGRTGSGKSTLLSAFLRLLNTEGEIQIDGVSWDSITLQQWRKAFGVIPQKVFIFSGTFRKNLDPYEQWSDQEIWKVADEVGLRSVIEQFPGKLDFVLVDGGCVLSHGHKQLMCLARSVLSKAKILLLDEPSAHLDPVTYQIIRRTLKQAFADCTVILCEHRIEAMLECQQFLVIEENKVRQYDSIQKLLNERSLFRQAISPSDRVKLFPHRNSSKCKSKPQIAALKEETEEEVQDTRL

B1: Nanobody T4 (VHH, not shown: small tags and cut ends)
VHH: QVQLQESGGGLVQAGGSLRLSCAASGSTFAIIAMGWYRQAPGKQRELVAVISTGDTRYADSVKGRFTISRDNAKNTVYLQMDSLRPEDTAVYYCNAAVQVRDYRNYWGQGTQVTVSS
Tm of stab-CFTR in complex with the nanobody (nanoDSF, first derivative of 350 nm fluorescence); 'stab-CFTR (51.4°C)', 'T4 (73.8°C)' alone [1]: 59.4 °C | thermostabilization (nanoDSF, Tm) [2]: 8 °C

B2: Nanobody T27 (VHH, not shown: small tags and cut ends)
VHH: QVQLQESGGGLEQPGGSLRLSCATSGVIFGINAMGWYRQAPGKQRELVATFTSGGSTNYADFVEGRFTISRDNAKNTVYLQMNGLRPEDTAVYYCHATVVVSRYGLTYDYWGQGTQVTVSS
notes: Llama nanobody; also called NbT27; T27 Nb
EC50 (read off the curve) [3]: ~0.002 µM | EC50 (read off the curve) [4]: ~0.003 µM | EC50 (read off the curve) [5]: ~0.003 µM | Kd [6]: 0.025 µM | pEC50 [7]: 8.7 | ΔG [8]: -42.7 kJ/mol | ΔH [8]: -50.6 kJ/mol | increase of Tm (thermal shift assay, DSF) [9]: 11.9 °C | ATPase activity (% of PKA-phosphorylated CFTR) [10]: 30%

B3: Nanobody D12 (VHH, not shown: small tags and cut ends)
VHH: QVQLQESGGGLVQAGSSLRLACAATGSIRSINNMGWYRQAPGKQRGMVAIITRVGNTDYADSVKGRFTISRDNAKNTVYLQMNSLKPEDTATYYCHAEITEQSRPFYLTDDYWGQGTQVTVSS
notes: Llama nanobody raised against 2PT-NBD1; produced in E. coli periplasm; also called Nb D12; D12 Nb
EC50 (read off the curve) [3]: ~0.01 µM | EC50 (read off the curve) [11]: ~0.08 µM | pEC50 [7]: 7.6 | EC50 (read off the curve) [12]: ~0.05 µM | increase of Tm (thermal shift assay, DSF) [9]: 13.8 °C | ATPase activity (% of PKA-phosphorylated CFTR) [10]: 50%

B4: Nanobody G3a (VHH, not shown: small tags and cut ends)
VHH: QVQLQESGGGLVQAGGSLRLSCTASGRAFSWYVMGWFRQAPGKEREFVATVSGNGSRRDYADSVKGRFTISRDNAKNTVYLQMNSLKPEDTAVYYCAASSTYYYTDPEKYDYWGQGTQVTVSS
notes: Llama nanobody, non-stabilizing; also called Nb G3a; G3a Nb
EC50 (read off the curve) [3]: ~2 µM | binding result [13]: binds | Kd [6]: 1.1 µM | pEC50 [7]: 5.8 | ΔG [8]: -33.4 kJ/mol | ΔH [8]: -47.7 kJ/mol
